Test results from article PMC3005623 (Journal of molecular biology, 2010).
Like-named read-outs stand apart in the source and are kept apart here.

Experiments:
Assay in all cases: negative-stain electron microscopy
[1] = target: Cdc3–Cdc11–(His)6–Cdc12-Cdc10(Δ12–28) complex (Cdc11-Cdc12-Cdc3-Cdc10(Δ12–28) hetero-tetramer) (S. cerevisiae) (UniProt P32457)
[2] = target: Cdc3–Cdc11–(His)6–Cdc12-Cdc10(Δ12–28) complex (Cdc11-Cdc12-Cdc3-Cdc10(Δ12–28) hetero-tetramer) (S. cerevisiae) (UniProt P32457); remark: listed apart in the source
[3] = target: the molecule itself
[4] = target: Cdc12(Δ318–407) (S. cerevisiae)
[5] = target: the molecule itself; remark: listed apart in the source

Molecule: Cdc3–Cdc11–(His)6–Cdc12-Cdc10(Δ12–28) complex (Cdc11-Cdc12-Cdc3-Cdc10(Δ12–28) hetero-tetramer) (from UniProt P32457 1-520; P32458 1-415; P32468 1-407; P25342 1-322)
- percent of particles that are heptamers [1]: 18.2%
- percent of particles that are hexamers [1]: 10.8%
- percent of particles that are octamers [1]: 21.8%
- percent of particles that are pentamers [1]: 8.03%
- percent of particles that are tetramers [1]: 41.3%
- percent of particles that are tetramers [2]: 88.3%
- percent of particles that are trimers [2]: 11.7%

B1: Cdc11 (natural protein, S. cerevisiae, UniProt P32458 1-415, looked up)
chain: MSGIIDASSALRKRKHLKRGITFTVMIVGQSGSGRSTFINTLCGQQVVDTSTTILLPTDTSTEIDLQLREETVELEDDEGVKIQLNIIDTPGFGDSLDNSPSFEIISDYIRHQYDEILLEESRVRRNPRFKDGRVHCCLYLINPTGHGLKEIDVEFIRQLGSLVNIIPVISKSDSLTRDELKLNKKLIMEDIDRWNLPIYNFPFDEDEISDEDYETNMYLRTLLPFAIIGSNEVYEMGGDVGTIRGRKYPWGILDVEDSSISDFVILRNALLISHLHDLKNYTHEILYERYRTEALSGESVAAESIRPNLTKLNGSSSSSTTTRRNTNPFKQSNNINNDVLNPASDMHGQSTGENNETYMTREEQIRLEEERLKAFEERVQQELLLKRQELLQREKELREIEARLEKEAKIKQEE
- binding result [3]: binds
- percent of particles that are heptamers [4]: 31.5%
- percent of particles that are hexamers [4]: 18.5%
- percent of particles that are octamers [4]: 50%

B2: Cdc3(K90A R93A R94A)–Cdc11–(His)6–Cdc12-Cdc10 complex (complex, S. cerevisiae)
chain 1: MSLKEEQVSIKQDPEQEERQHDQFNDVQIKQESQDHDGVDSQYTNGTQNDDSERFEAAESDVKVEPGLGMGITSSQSEKGQVLPDQPEIAFIAAQINGYVGFANLPKQWHRRSIKNGFSFNLLCVGPDGIGKTTLMKTLFNNDDIEANLVKDYEEELANDQEEEEGQGEGHENQSQEQRHKVKIKSYESVIEENGVKLNLNVIDTEGFGDFLNNDQKSWDPIIKEIDSRFDQYLDAENKINRHSINDKRIHACLYFIEPTGHYLKPLDLKFMQSVYEKCNLIPVIAKSDILTDEEILSFKKTIMNQLIQSNIELFKPPIYSNDDAENSHLSERLFSSLPYAVIGSNDIVENYSGNQVRGRSYPWGVIEVDNDNHSDFNLLKNLLIKQFMEELKERTSKILYENYRSSKLAKLGIKQDNSVFKEFDPISKQQEEKTLHEAKLAKLEIEMKTVFQQKVSEKEKKLQKSETELFARHKEMKEKLTKQLKALEDKKKQLELSINSASPNVNHSPVPTKKKGFLR
chain 2: MSGIIDASSALRKRKHLKRGITFTVMIVGQSGSGRSTFINTLCGQQVVDTSTTILLPTDTSTEIDLQLREETVELEDDEGVKIQLNIIDTPGFGDSLDNSPSFEIISDYIRHQYDEILLEESRVRRNPRFKDGRVHCCLYLINPTGHGLKEIDVEFIRQLGSLVNIIPVISKSDSLTRDELKLNKKLIMEDIDRWNLPIYNFPFDEDEISDEDYETNMYLRTLLPFAIIGSNEVYEMGGDVGTIRGRKYPWGILDVEDSSISDFVILRNALLISHLHDLKNYTHEILYERYRTEALSGESVAAESIRPNLTKLNGSSSSSTTTRRNTNPFKQSNNINNDVLNPASDMHGQSTGENNETYMTREEQIRLEEERLKAFEERVQQELLLKRQELLQREKELREIEARLEKEAKIKQEE
chain 3: MSAATATAAPVPPPVGISNLPNQRYKIVNEEGGTFTVMLCGESGLGKTTFINTLFQTVLKRADGQQHRQEPIRKTVEIDITRALLEEKHFELRVNVIDTPGFGDNVNNNKAWQPLVDFIDDQHDSYMRQEQQPYRTKKFDLRVHAVLYFIRPTGHGLKPIDIETMKRLSTRANLIPVIAKADTLTAQELQQFKSRIRQVIEAQEIRIFTPPLDADSKEDAKSGSNPDSAAVEHARQLIEAMPFAIVGSEKKFDNGQGTQVVARKYPWGLVEIENDSHCDFRKLRALLLRTYLLDLISTTQEMHYETYRRLRLEGHENTGEGNEDFTLPAIAPARKLSHNPRYKEEENALKKYFTDQVKAEEQRFRQWEQNIVNERIRLNGDLEEIQGKVKKLEEQVKSLQVKKSHLK
chain 4: MDPLSSVQPASYVGFDTITNQIEHRLLKKGFQFNIMVVGQSGLGKSTLINTLFASHLIDSATGDDISALPVTKTTEMKISTHTLVEDRVRLNINVIDTPGFGDFIDNSKAWEPIVKYIKEQHSQYLRKELTAQRERFITDTRVHAILYFLQPNGKELSRLDVEALKRLTEIANVIPVIGKSDTLTLDERTEFRELIQNEFEKYNFKIYPYDSEELTDEELELNRSVRSIIPFAVVGSENEIEINGETFRGRKTRWSAINVEDINQCDFVYLREFLIRTHLQDLIETTSYIHYEGFRARQLIALKENANSRSSAHMSSNAIQR
- binding result [3]: binds

B3: Cdc3(R111A R112A K115A)–Cdc11–(His)6–Cdc12-Cdc10 complex (complex, S. cerevisiae)
chain 1: MSLKEEQVSIKQDPEQEERQHDQFNDVQIKQESQDHDGVDSQYTNGTQNDDSERFEAAESDVKVEPGLGMGITSSQSEKGQVLPDQPEIKFIRRQINGYVGFANLPKQWHAASIANGFSFNLLCVGPDGIGKTTLMKTLFNNDDIEANLVKDYEEELANDQEEEEGQGEGHENQSQEQRHKVKIKSYESVIEENGVKLNLNVIDTEGFGDFLNNDQKSWDPIIKEIDSRFDQYLDAENKINRHSINDKRIHACLYFIEPTGHYLKPLDLKFMQSVYEKCNLIPVIAKSDILTDEEILSFKKTIMNQLIQSNIELFKPPIYSNDDAENSHLSERLFSSLPYAVIGSNDIVENYSGNQVRGRSYPWGVIEVDNDNHSDFNLLKNLLIKQFMEELKERTSKILYENYRSSKLAKLGIKQDNSVFKEFDPISKQQEEKTLHEAKLAKLEIEMKTVFQQKVSEKEKKLQKSETELFARHKEMKEKLTKQLKALEDKKKQLELSINSASPNVNHSPVPTKKKGFLR
chain 2: MSGIIDASSALRKRKHLKRGITFTVMIVGQSGSGRSTFINTLCGQQVVDTSTTILLPTDTSTEIDLQLREETVELEDDEGVKIQLNIIDTPGFGDSLDNSPSFEIISDYIRHQYDEILLEESRVRRNPRFKDGRVHCCLYLINPTGHGLKEIDVEFIRQLGSLVNIIPVISKSDSLTRDELKLNKKLIMEDIDRWNLPIYNFPFDEDEISDEDYETNMYLRTLLPFAIIGSNEVYEMGGDVGTIRGRKYPWGILDVEDSSISDFVILRNALLISHLHDLKNYTHEILYERYRTEALSGESVAAESIRPNLTKLNGSSSSSTTTRRNTNPFKQSNNINNDVLNPASDMHGQSTGENNETYMTREEQIRLEEERLKAFEERVQQELLLKRQELLQREKELREIEARLEKEAKIKQEE
chain 3: MSAATATAAPVPPPVGISNLPNQRYKIVNEEGGTFTVMLCGESGLGKTTFINTLFQTVLKRADGQQHRQEPIRKTVEIDITRALLEEKHFELRVNVIDTPGFGDNVNNNKAWQPLVDFIDDQHDSYMRQEQQPYRTKKFDLRVHAVLYFIRPTGHGLKPIDIETMKRLSTRANLIPVIAKADTLTAQELQQFKSRIRQVIEAQEIRIFTPPLDADSKEDAKSGSNPDSAAVEHARQLIEAMPFAIVGSEKKFDNGQGTQVVARKYPWGLVEIENDSHCDFRKLRALLLRTYLLDLISTTQEMHYETYRRLRLEGHENTGEGNEDFTLPAIAPARKLSHNPRYKEEENALKKYFTDQVKAEEQRFRQWEQNIVNERIRLNGDLEEIQGKVKKLEEQVKSLQVKKSHLK
chain 4: MDPLSSVQPASYVGFDTITNQIEHRLLKKGFQFNIMVVGQSGLGKSTLINTLFASHLIDSATGDDISALPVTKTTEMKISTHTLVEDRVRLNINVIDTPGFGDFIDNSKAWEPIVKYIKEQHSQYLRKELTAQRERFITDTRVHAILYFLQPNGKELSRLDVEALKRLTEIANVIPVIGKSDTLTLDERTEFRELIQNEFEKYNFKIYPYDSEELTDEELELNRSVRSIIPFAVVGSENEIEINGETFRGRKTRWSAINVEDINQCDFVYLREFLIRTHLQDLIETTSYIHYEGFRARQLIALKENANSRSSAHMSSNAIQR
- binding result [3]: binds

B4: Cdc10 (natural protein, S. cerevisiae, UniProt P25342 1-322, looked up)
chain: MDPLSSVQPASYVGFDTITNQIEHRLLKKGFQFNIMVVGQSGLGKSTLINTLFASHLIDSATGDDISALPVTKTTEMKISTHTLVEDRVRLNINVIDTPGFGDFIDNSKAWEPIVKYIKEQHSQYLRKELTAQRERFITDTRVHAILYFLQPNGKELSRLDVEALKRLTEIANVIPVIGKSDTLTLDERTEFRELIQNEFEKYNFKIYPYDSEELTDEELELNRSVRSIIPFAVVGSENEIEINGETFRGRKTRWSAINVEDINQCDFVYLREFLIRTHLQDLIETTSYIHYEGFRARQLIALKENANSRSSAHMSSNAIQR
- binding result [5]: binds

B5: Cdc10(H24A R25A K28A K29A) (natural protein, S. cerevisiae, UniProt P25342 1-322, looked up)
chain: MDPLSSVQPASYVGFDTITNQIEAALLAAGFQFNIMVVGQSGLGKSTLINTLFASHLIDSATGDDISALPVTKTTEMKISTHTLVEDRVRLNINVIDTPGFGDFIDNSKAWEPIVKYIKEQHSQYLRKELTAQRERFITDTRVHAILYFLQPNGKELSRLDVEALKRLTEIANVIPVIGKSDTLTLDERTEFRELIQNEFEKYNFKIYPYDSEELTDEELELNRSVRSIIPFAVVGSENEIEINGETFRGRKTRWSAINVEDINQCDFVYLREFLIRTHLQDLIETTSYIHYEGFRARQLIALKENANSRSSAHMSSNAIQR
- binding result [5]: binds

B6: Cdc10(I22E) (natural protein, S. cerevisiae, UniProt P25342 1-322, looked up)
chain: MDPLSSVQPASYVGFDTITNQEEHRLLKKGFQFNIMVVGQSGLGKSTLINTLFASHLIDSATGDDISALPVTKTTEMKISTHTLVEDRVRLNINVIDTPGFGDFIDNSKAWEPIVKYIKEQHSQYLRKELTAQRERFITDTRVHAILYFLQPNGKELSRLDVEALKRLTEIANVIPVIGKSDTLTLDERTEFRELIQNEFEKYNFKIYPYDSEELTDEELELNRSVRSIIPFAVVGSENEIEINGETFRGRKTRWSAINVEDINQCDFVYLREFLIRTHLQDLIETTSYIHYEGFRARQLIALKENANSRSSAHMSSNAIQR
- binding result [5]: binds
